Reference: US20080227711A1 (LABORATOIRES SERONO, published 2008)

Legend:
CXCL8/IL-8 [1] = target: T1, CXCL8/IL-8 (UniProt P10145 28-99, limits assumed); experiment: equilibrium competition receptor binding assay: inhibition of 0.1 nM 125I-IL-8 binding to CHO/CXCR1 cells
T1 construct: also called 125I-CXCL8/IL-8; 125I-IL-8
T1 sequence (looked up): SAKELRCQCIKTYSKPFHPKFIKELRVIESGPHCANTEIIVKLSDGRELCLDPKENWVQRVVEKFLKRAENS

murine CXCL2/MIP-2 [2] = target: T2, murine CXCL2/MIP-2 (murine, UniProt P10889 28-100); experiment: SPR (Biacore 3000), Evasin-3 from E. coli immobilized on CM4 chip, chemokine injected, Langmuir global fit
T2 sequence: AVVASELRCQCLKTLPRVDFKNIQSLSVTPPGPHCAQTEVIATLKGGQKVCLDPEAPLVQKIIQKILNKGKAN

CXCL1/Gro-alpha [3] = target: T3, CXCL1/Gro-alpha (UniProt P09341 35-107); experiment: as above
T3 construct: also called Gro-α; 125I-CXCL1/Gro-alpha
T3 sequence: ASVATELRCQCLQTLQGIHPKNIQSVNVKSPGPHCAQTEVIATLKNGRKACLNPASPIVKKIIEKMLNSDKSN

murine CXCL1/KC [4] = target: T4, murine CXCL1/KC (murine, UniProt P12850 25-96); experiment: as above
T4 sequence: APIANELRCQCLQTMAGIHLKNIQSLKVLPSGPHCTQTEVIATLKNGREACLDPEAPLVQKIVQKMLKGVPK

CXCL8/IL-8 [5] = target: T1, CXCL8/IL-8; experiment: as above
CXCL12/SDF-1-alpha = target: T5, CXCL12/SDF-1-alpha (UniProt P48061 22-89); experiment: SPR (Biacore 3000), Evasin-3 from E. coli immobilized on CM4 chip, chemokine injected
T5 construct: also called SDF-1α

CCL11/eotaxin = target: T6, CCL11/eotaxin (UniProt P51671 24-97); experiment: as above
T6 construct: also called 125I-eotaxin

CCL4/MIP-1-beta = target: T7, CCL4/MIP-1-beta (UniProt P13236 24-92); experiment: as above
T7 construct: also called MIP-1β
T7 sequence: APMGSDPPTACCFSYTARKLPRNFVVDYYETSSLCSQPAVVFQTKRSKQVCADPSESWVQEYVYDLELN

CX3CL1/Fractalkine = target: T8, CX3CL1/Fractalkine (UniProt P78423 25-100); experiment: as above
T8 sequence: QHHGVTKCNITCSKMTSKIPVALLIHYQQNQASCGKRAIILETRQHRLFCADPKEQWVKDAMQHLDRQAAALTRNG

CCL2/MCP-1 = target: T9, CCL2/MCP-1 (UniProt P13500 24-99); experiment: as above
T9 construct: also called 125I-MCP-1

CCL3/MIP-1-alpha = target: T10, CCL3/MIP-1-alpha (UniProt P10147 24-92); experiment: as above
T10 construct: also called MIP-1α
T10 sequence: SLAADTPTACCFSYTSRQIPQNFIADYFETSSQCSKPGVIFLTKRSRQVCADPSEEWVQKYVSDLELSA

CCL18/PARC = target: T11, CCL18/PARC (UniProt P55774 21-89); experiment: as above
T11 sequence: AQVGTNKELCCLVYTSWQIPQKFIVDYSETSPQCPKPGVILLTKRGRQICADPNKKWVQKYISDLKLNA

CCL5/RANTES = target: T12, CCL5/RANTES (UniProt P13501 24-91); experiment: as above
T12 construct: also called 125I-CCL5/RANTES
T12 sequence: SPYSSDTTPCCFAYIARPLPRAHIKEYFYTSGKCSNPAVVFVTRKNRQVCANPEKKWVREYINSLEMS

murine CXCL2/MIP-2 [6] = target: T2, murine CXCL2/MIP-2; experiment: SPR (Biacore 3000), Evasin-3 from E. coli immobilized on CM4 chip, Kd=kd/ka
CXCL1/Gro-alpha [7] = target: T3, CXCL1/Gro-alpha; experiment: as above
murine CXCL1/KC [8] = target: T4, murine CXCL1/KC; experiment: as above
CXCL8/IL-8 [9] = target: T1, CXCL8/IL-8; experiment: as above

T9 sequence (P13500 24-99 limits assumed): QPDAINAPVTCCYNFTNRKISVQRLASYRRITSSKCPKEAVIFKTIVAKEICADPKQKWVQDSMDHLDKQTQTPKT
T6 sequence (P51671 24-97 limits assumed): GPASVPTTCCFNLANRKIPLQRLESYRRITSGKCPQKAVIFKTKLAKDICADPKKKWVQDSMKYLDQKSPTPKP
T5 sequence (P48061 22-89 limits assumed): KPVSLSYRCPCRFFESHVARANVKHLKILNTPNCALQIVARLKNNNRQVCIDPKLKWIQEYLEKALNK

B1: recombinant Evasin-3 produced in E. coli (Met-Evasin-3) (other)
chain: MLVSTIESRTSGDGADNFDVVSCNKNCTSGQNECPEGCFCGLLGQNKKGHCYKIIGNLSGEPPVVRR
notes: No tag, not glycosylated; also called mature Met-Evasin-3
- IC50 (CXCL8/IL-8 [1]): 20 nM
- koff (murine CXCL2/MIP-2 [2]): 0.000878 s⁻¹
- kon (murine CXCL2/MIP-2 [2]): 1.05e+06 M⁻¹ s⁻¹
- koff (CXCL1/Gro-alpha [3]): 0.00269 s⁻¹
- kon (CXCL1/Gro-alpha [3]): 2.23e+06 M⁻¹ s⁻¹
- koff (murine CXCL1/KC [4]): 0.00235 s⁻¹
- kon (murine CXCL1/KC [4]): 514000 M⁻¹ s⁻¹
- koff (CXCL8/IL-8 [5]): 0.00032 s⁻¹
- kon (CXCL8/IL-8 [5]): 603000 M⁻¹ s⁻¹
- binding result (CXCL12/SDF-1-alpha): no binding (tested: 0.5 µg/ml chemokine)
- binding result (CCL11/eotaxin): no binding (tested: 0.5 µg/ml chemokine)
- binding result (CCL4/MIP-1-beta): no binding (tested: 0.5 µg/ml chemokine)
- binding result (CX3CL1/Fractalkine): no binding (tested: 0.5 µg/ml chemokine)
- binding result (CCL2/MCP-1): no binding (tested: 0.5 µg/ml chemokine)
- binding result (CCL3/MIP-1-alpha): no binding (tested: 0.5 µg/ml chemokine)
- binding result (CCL18/PARC): no binding (tested: 0.5 µg/ml chemokine)
- binding result (CCL5/RANTES): no binding (tested: 0.5 µg/ml chemokine)
- Kd (murine CXCL2/MIP-2 [6]): 0.84 nM
- Kd (CXCL1/Gro-alpha [7]): 1.21 nM
- Kd (murine CXCL1/KC [8]): 4.56 nM
- Kd (CXCL8/IL-8 [9]): 0.53 nM
